# Assay results taken from patent publication US8629107B2, “Genes and proteins associated with angiogenesis and uses thereof” (National Jewish Health, priority 2005, dated 2014).
# B1: SMOC-2: secretory protein stably expressed in MB114 cells by retroviral transduction (protein, UniProt Q8CD91 22-447, looked up)
# SPARC-related modular …: QKFSALTFLRVDQDKDRDCSLDCPSSPQKPLCASDGRTFLSRCEFQRAKCKDPQLEIAHRGNCKDVSRCVAERKYTQEQARKEFQQVFIPECNDDGTYSQVQCHSYTGYCWCVTPNGRPISGTAVAHKTPRCPGSINEKVPQREGAGKADDAAAPALETQPQGDEEDIASRYPTLWTEQVKSRQNKTNKNSASSCDQEHQSALEEAKQPKNDNVVIPECAHGGLYKPVQCHPSTGYCWCVLVDTGRPIPGTSTRYEQPKCDNTARAHPAKARDLYKNRPLQGCPGAKKHEFLTSVLDALSTDMVHAVSDPSSSSGRLSEPDPSHTLEERVVHWYFKLLDKNSSGDIGKKEIKPFKRFLRKKSKPKKCVKKFVEYCDMNNDKSITVQELMGCLGVTREEGKANTRKRHTPRGNAESSSSNRQPRKQG
# B2: lumican: SLRP family secreted proteoglycan stably expressed in MB114 cells by retroviral transduction (protein, UniProt P51885 19-338, looked up)
# Lumican: QYYDYDIPLFMYGQISPNCAPECNCPHSYPTAMYCDDLKLKSVPMVPPGIKYLYLRNNQIDHIDEKAFENVTDLQWLILDHNLLENSKIKGKVFSKLKQLKKLHINYNNLTESVGPLPKSLQDLQLTNNKISKLGSFDGLVNLTFIYLQHNQLKEDAVSASLKGLKSLEYLDLSFNQMSKLPAGLPTSLLTLYLDNNKISNIPDEYFKRFTGLQYLRLSHNELADSGVPGNSFNISSLLELDLSYNKLKSIPTVNENLENYYLEVNELEKFDVKSFCKILGPLSYSKIKHLRLDGNPLTQSSLPPDMYECLRVANEITVN
# Columns and labels:
# [1] = test system: vessel formation and infiltration into Matrigel plugs; test: Matrigel plug implantation assay; format: in vivo, C57BL/6 mice
# Description: The effect of MAGP-2 on vessel formation and infiltration into Matrigel plugs implanted into genetically normal mice was determined as described (Albig et al, 2006). Briefly, phenol red-free Matrigel (BD biosciences, Bedford, Mass.) was mixed with PBS (diluent), bFGF (50 or 300 ng/ml; R&D Systems, Minneapolis, Minn.), or recombinant MAGP-2 (1 μg/ml) together with bFGF (50 ng/ml), and the resulting mixtures were injected twice subcutaneously in the ventral groin area (400 μl/injection) of C57BL/6 mice. The mice were sacrificed 10 days post-implantation and the Matrigel plugs were dissected, fixed overnight in 10% formalin, and sectioned in the National Jewish Histology Laboratory. Afterward, Masson's trichrome staining was performed to visualize infiltrating vessels, which were quantified under a light microscope by determining the average number of vessels present in 5 random fields (200× magnification). Only those fields that contained at least one vessel in the area underlying the skin were tallied. Two mice were used per experimental condition and this experiment was performed three times in its entirety. All animal studies were performed according to protocol procedures approved by the Animal Care and Use Committee at National Jewish Medical and Research Center.
# The inventors tested this hypothesis by utilizing the Matrigel plug implantation assay, which monitors the ability of various angiogenic agents to alter vessel formation and infiltration into Matrigel plugs implanted subcutaneously into normal mice. […] MAGP-2 purity was monitored by coomassie staining, and by immunoblotting with anti-FLAG M2 monoclonal antibodies (FIG. 2A; right panel). rMAGP-2 (1 μg/ml) stimulated angiogenic sprouting of quiescent MB114 cell monolayers (FIG. 2A; left panel). […] Afterward, the Matrigel plugs were fixed, sectioned, and stained with Masson's trichrome to visualize infiltrating blood vessels (FIG. 2B; right panels; arrows denote blood vessels), which were quantified by manual counting under a light microscope. […]
# [2] = test system: MB114 cells; test: cell proliferation, [3H]thymidine incorporation assay; format: cell-based, murine
# Description: (§1) The effect putative angiogenic agents had on MB114 cell activities were determined as follows: (i) cell proliferation using a [^3H]thymidine incorporation assay as described (Albig et al, 2006; Albig and Schiemann, 2004; Albig and Schiemann, 2005); (ii) cell invasion through Matrigel matrices using a modified Boyden-chamber assay as described (Albig et al, 2006; Albig and Schiemann, 2004; Albig and Schiemann, 2005); (iii) p38 MAPK phosphorylation using immunoblot analyses as described (Albig et al, 2006; Albig and Schiemann, 2004; Albig and Schiemann, 2005); (iv) angiogenic sprouting in rat tail collagen matrices as described (Albig et al, 2006; Albig and Schiemann, 2004); and (v) Hes1- and SBE-driven luciferase reporter gene assays as described (Albig et al, 2006; Albig and Schiemann, 2004; Albig and Schiemann, 2005).
# (§2) FIG. 1A show results from an experiment in which serum-starved MB114 cells, stably expressing either GFP or various putative angiogenic agents, were stimulated in the absence or presence of either bFGF (50 ng/ml) or EGF (10 ng/ml) for 24 h at 37° C. Differences in MB114 cell DNA synthesis was determined by measuring [^3H]thymidine incorporation into cellular DNA. […] In this experiment, invasion of MB114 cells expressing either GFP or various putative angiogenic agents through synthetic basement membranes was determined over 48 h using a modified Boyden-chamber assay.
# [3] = test system: MB114 cells; test: angiogenic sprouting in rat tail collagen matrices; format: cell-based, murine; conditions: MB114 cells stably expressing the transgene vs GFP; 10% FBS, 5 days
# Description: as §1
# Finally, it was determined whether expression of these putative angiogenic factors could effect the angiogenic sprouting of quiescent MB114 cells monolayers. MB114 cells expressing either GFP or various putative angiogenic agents were grown to confluency, and subsequently were overlaid with rat tail collagen matrices. Angiogenic sprouting by quiescent EC monolayers was stimulated by inclusion of 10% FBS and allowed to proceed for 5 days. The quantity of invading angiogenic sprouts was determined by manual counting under a light microscope.
# Based on the findings described in the Examples above, the inventors hypothesized that MAGP-2 promotes angiogenesis by antagonizing Notch1 signaling. To test this hypothesis, it was first determined whether inhibiting Notch signaling in MB114 cells would enhance their angiogenic sprouting. In doing so, MB114 cells were transiently transfected with the Hes1-luciferase reporter gene (and pCMV-β-gal cDNA as control), and subsequently were treated overnight with or without the highly specific gamma-secretase inhibitor, DAPT (Sastre et al, 2001), which inhibits S3-mediated cleavage of Notch1 and, consequently, NICD-mediated induction of Hes1 expression. Afterward, luciferase and β-gal activities were determined. […] In this experiment, quiescent MB114 cell monolayers were overlaid with rat tail collagen matrices, and were induced to form angiogenic sprouts by addition of 10% FBS supplemented with or without DAPT (10 μM). Five days later the number of invading angiogenic spouts were quantified by manual counting on a light microscope. Based on these findings, the inventors conclude that Notch activation functions in mediating angiostasis in MB114 cells. […] Collectively, these findings indicate that Notch1 signaling antagonizes angiogenic sprouting in MB114 cells, and that downregulation of Notch1 signaling components is necessary for angiogenesis activation in MB114 cells.
# Having shown that Notch1 signaling mediates angiostasis in MB114 cells, the inventors next asked whether MAGP-2 promotes angiogenesis in MB114 cells via its ability to antagonize Notch signaling. To do so, MAGP-2-expressing MB114 cells were engineered to constitutively express active Notch1 NICD fragment in an attempt to overcome the block of Notch processing mediated by MAGP-2. More particularly, GFP-, MAGP-2-, and MAGP-2/N1ICD-expressing MB114 cells were transiently transfected with pHes1-luciferase and pCMV-β-gal cDNAs. Luciferase and β-gal activities were determined 48 h post-transfection. As the inventors observed previously, MAGP-2 expression reduced Hes1-luciferase activity in MB114 cells (FIG. 5C), a reaction that was bypassed by co-expression of NICD in these cells (FIG. 5C). […] In this experiment, quiescent monolayers of GFP-, MAGP-2-, and MAGP-2/N1ICD-expressing MB114 cells were overlaid with rat tail collagen matrices and incubated in the absence or presence of 10% FBS for 5 days. Afterward, the number of invading angiogenic sprouts were determined by manual counting under a light microscope.
# [4] = test system: MB114 cells; test: cell invasion through Matrigel matrices, modified Boyden-chamber assay; format: cell-based, murine; conditions: MB114 cells stably expressing the transgene vs GFP; 48 h
# Description: as §1, §2
# [5] = test system: MCA102 fibrosarcomas; test: MCA102 fibrosarcomas produced in mice; format: in vivo
# [6] = test system: p38 MAPK; test: p38 MAPK phosphorylation by immunoblot analyses; format: cell-based, murine; conditions: serum-starved MB114 cells expressing the transgene; bFGF 50 ng/ml or EGF 10 ng/ml, 0-15 min
# Description: as §1
# The inventors' previous studies have associated stimulation of p38 MAPK activity with angiogenesis of MB114 cells and, conversely, inhibition of p38 MAPK activity with angiostasis of MB114 cells (Albig et al, 2006; Albig and Schiemann, 2004; Albig and Schiemann, 2005). […] The phosphorylation status of p38 MAPK was determined by immunoblotting whole cell lysates with phospho-specific p38 MAPK antibodies (p38-P). Differences in protein loading were monitored by reprobing stripped membranes with anti-p38 MAPK polyclonal antibodies (p38).
Molecule,"vascularization of implanted Matrigel plugs ([1]; 50 or 300 ng/ml in Matrigel vs diluent, subcutaneous, C57BL/6 mice, day 10)","proliferative response of MB114 cells to bFGF ([3H]thymidine incorporation into cellular DNA) ([2]; serum-starved MB114 cells stably expressing the transgene vs GFP, bFGF 50 ng/ml, 24 h, 37° C.)",angiogenic sprouting of quiescent MB114 cell monolayers [3],MB114 cell invasion through synthetic basement membranes [4],growth of MCA102 fibrosarcomas produced in mice ([5]; unpublished observation),blood vessel density of MCA102 fibrosarcomas produced in mice ([5]; unpublished observations),development and infiltration of vessels in Matrigel plugs implanted into mice ([1]; unpublished observations),"MB114 cell proliferation ([2]; transgene expression in MB114 cells, data not shown)",p38 MAPK phosphorylation [6]
bFGF: growth factor (R&D Systems) mixed into Matrigel at 50 or 300 ng/ml [reference compound],dose-dependently stimulated,–,–,–,–,–,–,–,–
B1,–,significantly enhanced,significantly increased,significantly induced,–,–,–,–,–
B2,–,–,significantly decreased,–,decreases,decreases,antagonizes,inhibit,significantly inhibited
